# Experimental data reported in a protein production outcome set (Wang et al. 2014).
# Experiment: label from the status in PepcDB records
row,Sequence,protein production
1,MSLFKRSVVSEITSHAGVVFSTLVVVWLSVLLVRLLGEAAGGSIGADVVLGLAAFSTITALPTILAVSLFIAVLTTVTRNYRESEMVVWFASGLSLADWLRPVARVAVPIAMLVAALTLVASPWAYRQIGEYRERFEQRSDLSKVTAGQFAESGRGDRVFFAEDPVRPGDELGAVFARSIDPEWLSVLTASNARSETLPNGDRFLVLGEGHRYDLKPGTPEIRLVNFDQYGVRLESKAGEDPMAEARAAAERSSKARSTMQLVQDNTDSSWSQIMWRVAMPLAALNLALLAIPLGAVNPRLGRSGDLLIAGLVGLLYMNMINLSRAWISSGKISFSIGVWAVHAVVALLAAYLLMRRLRVKAPRNAGRGA,failed
2,MSLGRFVRHALITAGTKGLGKQVTEKLLAKGYSVTVTYHSDTTAMETMKETYKDVEERLQFVQADVTKKEDLHKIVEEAMSHFGKIDFLINNAGPYVFERKKLVDYEEDEWNEMIQGNLTAVFHLLKLVVPVMRKQNFGRIINYGFQGADSAPGWIYRSAFAAAKVGLVSLTKTVAYEEAEYGITANMVCPGDIIGEMKEATIQEARQLKEHNTPIGRSGTGEDIARTISFLCEDDSDMITGTIIEVTGAVDVIHREGHHHHHH,not failed
3,MSLHGKLIQFHKFGNPKDVLQVEYKNIEPLKDNEVFVRMLVRPINPSDLIPITGAYAHRIPLPNIPGYEGVGIVENVGAFVSRELIGKRVLPLRGEGTWQEYVKTSADFVVPIPDSIDDFTAAQMYINPLTAWVTCTETLNLQRNDVLLVNACGSAIGHLFAQLSQILNFRLIAVTRNNKHTEELLRLGAAYVIDTSTAPLYETVMELTNGIGADAAIDSIGGPDGNELAFSLRPNGHFLTIGLLSGIQVNWAEIVTKAKVHANIFHLRHWNDEVSPYKWQETFRHLIRLVENEQLRFMKVHSTYELADVKAAVDVVQSAEKTKGKVFLTSYEGHHHHHH,not failed
4,MSLIILTRDDEPRIFTPDSDAASPALHSTSPLPDPASASPLHREEKILPKVCNIVSCLSFSLPASPTDSGLASPTIITREGQQFWAKCLIWKYQLYLHGLHKKSDGRRDKQISASPST,failed
5,MSLILLGALSLASSTFAQTWIWYPGDYEIWLGNQMNNRRTERGAFFPPFWKTDSHYVVVEFSKVLNLSEPEEVFIAAEGTYNVKLDGKLQFGMPETLLLPAGKHSLNIKVWNQATPPTIYVKGKTVNSDSSWRVTYEDKEWIDESGKASDTSATIYMDAGCWNFDGATQRPSQFSLMREPQQPVAKTEQPEGGILYDFGKETFGFITLKNLSGKGKIDLYYGESPEEAKDKAYCETLDKLLLEPGQITDLAIRSTSPLHHSDNEYTLENSKAFRYVYITHEPEVQIGEVSMQYEYLPEEYRGNFRCNDEELNCIWEVGAYTMHLTTREFFIDGIKRDRWVWSGDAIQSYLMNYYLFFDSESVKRTIWLLRGKDPVTSHSNTIMDYTFYWFLSVYDYYMYSGDRHFVNQLYPRMQTMMDYVLGRTNKNGMVEGMSGDWVFVDWADGYLDKKGELSFEQVLFCRSLETMALCADLVGDKDGQQKYEKLASALKAKLEPTFWNNQKQAFVHNCVDGRQSDAVTRYANMFSVFFDYLNADKQQAIKQSVLLNDEILKITTPYMRFYELEALCALGEQETVMKEMKAYWGGMLKAGATSFWEKYNPEESGTQHLAMYGRPYGKSLCHAWGASPIYLLGKYYLGVKPTKEGYKEFAVSPVLGGLKWMEGTVPTPNGDIHVYMDNKTIKVKATEGKGYLTIQSRRQPKANMGTVEKVSEGVWRLWIDSPEERIVTYRLEGHHHHHH,not failed
6,MSLILYDYFRSTACYRVRIALNLKKIAYEKIEVHLVNNGGEQHSLQYHQINPQELVPSLDINGQILSQSMAIIDYLEEIHPEMPLLPKDPFMKATLKSMALIVACDMHPLNNLRVLNRLKEQFNANEEQVLEWYHHWLKTGFDAFEEKLGALERDKPVCFGSEVGLADVCLIPQVYNAHRFHFDMASYPIINEINEYCLTLPAFHDAAPEAISSEGHHHHHH,not failed
7,MSLIMITAEMVPPDLLIKRLAIYLKENVKTVDPPEWALLAKTASFKERVPDNAEDWWYIRAASLLRKLYVNSIIGIEKTRTIYGGRKRRGTRPEKFVKAPGHVNRLIFQQLEKAGLVQKIKNKGRSLSPKGRSLLDKLALEIFKELAENNTSLKVYLELEHHHHHH,not failed
8,MSLISFAPHSGVWLLTTPHTSYALRIDASGAPCHLAWGPRLTLAAAEELAVPEPPAASSFEGRPSVGEELPVDGGVRYGPPSLQVRFADGSRAFEWQPTGHRVHESADGAHELVLFFRDRRYPLQVALHYRVRADTDVIERWTVVRNGGDEPVTLLRADSAAWTLPPLADYRLSHVTGQWSAESRLRRDRLPYGETVLTSRRGITSHHTNPWLMVDSGEATEDHGRVWSAALAWSGSWRITTQRTPDGRTGFTGGVGHDGTGVPLTPGEEFTAPAFAGLFTADGFGAASRAWHAYTLAHVLPHPDEPVPVLYNSWEATGFDVDEVGQKALAERAAALGVELYVVDDGWFGGRRSDRAGLGDWTPAPDRFPDGLGPLADRVRELGMRFGLWVEPEMVNPDSDLYRAHPDWVLHLPDRSRSELRNQLVLNFARRDVADWAYGWLTELVGAHRIDFLKWDMNRAFSEAGWPGQQDGADRLGTQYVRHLYGVIDRLRADHPGLRIESCSGGGGRIDLGILGRTDQTWASDNTDAADRLWIQHGFSQIYPARTMGCWVTDAPNQFTGRGLPLRFRFHAAMAGALGIGGDLARWSEEELREGAALVTEYKKVRHLVQHGRLDRLSPPSGQSPAVVQYTSADGSESLVLAWRGVPRPGDADLPVRLRALTPAARYRDSRTGTVHHASVLGDYGLRLDLPAGDWSSVAMHLVREPEAV,failed
9,MSLIVITGASSGLGAELAKLYDAEGKATYLTGRSESKLSTVTNCLSNNVGYRARDLASHQEVEQLFEQLDSIPSTVVHSAGSGYFGLLQEQDPEQIQTLIENNLSSAINVLRELVKRYKDQPVNVVMIMSTAAQQPKAQESTYCAVKWAVKGLIESVRLELKGKPMKIIAVYPGGMATEFWETSGKSLDTSSFMSAEDAALMIHGALANIGNGYVSDITVNREGHHHHHH,not failed
10,MSLKFDFSNLFEPNISGGLTDEDVKSVEEKVTSAVRNFVENTPDFAKLDRSWIDSVKSLEDWIINFDTVVVLGIGGSGLGNLALHYSLRPLNWNEMTREERNGYARVFVVDNVDPDLMSSVLDRIDPKTTLFNVISKSGSTAEVMATYSIARGILEAYGLDPREHMLITTDPEKGFLRKLVKEEGFRSLEVPPGVGGRFSVLTPVGLLSAMAEGIDIDELHEGAKDAFEKSMKENILENPAAMIALTHYLYLNKGKSISVMMAYSNRMIYLVDWYRQLWAESLGKRYNLKGEEVFTGQTPVKALGATDQHSQIQLYNEGPNDKVITFLRVENFDREIVIPETGRAELSYLARKKLSELLLAEQTGTEEALRENNRPNMRVTFDGLTPYNVGQFFAYYEAATAFMGYLLEINPFDQPGVELGKKITFALMGREGYTYEIKERSKKVIIE,not failed
11,MSLKGKRIGFGFTGSHCTYEEVMPHLEKLIAEGAEVRPVVSYTVQSTNTRFGEGAEWIKKIEEITGFKAINSIVGAEPLGPKIPLDCMVIAPLTGNSMSKFANAMTDSPVLMAAKATLRNGKPVVLAVSTNDALGLNGVNLMRLMATKNIYFVPFGQDAPEKKPNSMVARMELLEDTVLEALQGKQLQPVVVEKFRYMNLEHHHHHH,not failed
12,MSLKGLRRLVLDVLKPHEPKTIVFALKLSELENVDGVNIHLSEIDQATENIKITILGNNLDYEQIKGVIEDMGGVIHSVDEVVAGKIIVESVEGHHHHHH,not failed
13,MSLKHVVVIGAVALGPKAACRFKRLDPEAHVTMIDQASRISYGGCGIPYYVSGEVSNIESLQATPYNVVRDPEFFRINKDVEALVETRAHAIDRAAHTVEIENLRTGERRTLKYDKLVLALGSKANRPPVEGMDLAGVTPVTNLDEAEFVQHAISAGEVSKAVIVGGGFIGLEMAVSLADMWGIDTTVVELADQIMPGFTSKSLSQMLRHDLEKNDVVVHTGEKVVRLEGENGKVARVITDKRTLDADLVILAAGVSPNTQLARDAGLELDPRGAIIVDTRMRTSDPDIFAGGDCVTIPNLVTGKPGFFPLGSMANRQGRVIGTNLADGDATFPGAVGSWAVKLFEGSASGAGLTVEGALREGYDAVNVHVEQFDRAHFYPEKTIMTLQLVVDRPTRRVLGIQGFSTLGDALTARINAVATMLASKPTVEDISNAEVVYSPPFASAMDIVNVAGNVADNVLAGREGHHHHHH,not failed
14,MSLKIIDFRLRPPAMGFLNARIYTRPDIRNRFTRQLGFEPAPSAEEKSLELMFEEMAAAGIEQGVCVGRNSSVLGSVSNADVAAVAKAYPDKFHPVGSIEAATRKEAMAQMQEILDLGIRIVNLEPGVWATPMHVDDRRLYPLYAFCEDNGIPVIMMTGGNAGPDITYTNPEHIDRVLGDFPDLTVVSSHGNWPWVQEIIHVAFRRPNLYLSPDMYLYNLPGHADFIQAANSFLADRMLFGTAYPMCPLKEYTEWFLTLPIKPDAMEKILHGNAERLLAQAGREGHHHHHH,not failed
15,MSLKITDVDVWVVNLPLVNPFTSSFETKTGETRTVVRVRTDSGVEGWGETMWGAPVAAIVRRMAPDLIGTSPFALEAFHRKQHMVPFFYGYLGYAAIAAVDVACWDAMGKATGQSVTDLLGGAVRDEVPITALITRADAPGATPADLPKAMAEHAVRVVEEGGFDAVKLKGTTDCAGDVAILRAVREALPGVNLRVDPNAAWSVPDSVRAGIALEELDLEYLEDPCVGIEGMAQVKAKVRIPLCTNMCVVRFEDFAPAMRLNAVDVIHGDVYKWGGIAATKALAAHCETFGLGMNLHSGGELGIATAAHLAVVSSTPVLSRAIDSMYYLHADDIIEPLHLENGRLRVPSGPGLGVSVDEDKLRHYAGVNERDGDLTGEGHHHHHH,not failed
16,MSLKLTPEAAGTFAIAPTPFHDDGKIDDVSIDRLTDFYAEVGCEGVTVLGILGEAPKLDAAEAEAVATRFIKRAKSMQVIVGVSAPGFAAMRRLARLSMDAGAAGVMIAPPPSLRTDEQITTYFRQATEAIGDDVPWVLQDYPLTLSVVMTPKVIRQIVMDSASCVMLKHEDWPGLEKITTLRGFQKDGSLRPLSILCGNGGLFLDFEMERGADGAMTGYCFPDMLVDVVKLSKAGQRDLAHNLFDAHLPLIRYEHQQGVGLSVRKYVLKKRGLLSSSAQRKPGASLTDTAREEVDYLLSRLARVEGHHHHHH,not failed
17,MSLKNKFKNFFSLDDEEYEYEYIETDREEIPEEHESKDRTAYQSKAAGKQNVVSLQSVQKSSKVVLSEPRVYAEAQEIADHIKNRRAVVVNLQRIQHDQAKRIVDFLSGTVYALGGDIQRIGADIFLCTPENVDVSGTISELIEEEHQRW,failed
18,MSLKNMADLSYVNIFTRDIVAMSAFYQQVFGFQEIESIRSPIFRGLDTGKSCIGFNAHEAYELMQLAQFSETSGIKFLLNFDVDTKEAVDKLVPVAIAAGATLIKAPYETYYHWYQAVLLDPERNVFRINNVLEGHHHHHH,not failed
19,MSLKSLASIENWPVPTAAAGVVRADGTVLGTHGPAAHRFPLASVTKPLAAYAALVAYEEGAIELDEPAGPPGATVRHLLAHTSGLAFDEHRVTAPPGDRRLYSNAGFEQLGDHIAKAAEMPFAEYARQAVLEPLGMTATSLAGSPAKDGVSTVDDLLRFAAEVQAPRLLDPRTVAEAMTVQYPGTKGVLPGYGHQNPNDWGLGFEIRDGKSPHWTGAASSPRTFGHFGQSGTFLWIDPDAALACVSLTDRAFGPWAVEAWPPFTDGVLAEVRG,failed
20,MSLKVQGYANVVTLPNVTGRVIIVGDIHGCRAQLEDLLRAVSFKQGSDTLVAVGDLVNKGPDSFGVVRLLKRLGAYSVLGNHDAKLLKLVKKLGKKECLKGRDAKSSLAPLAQSIPTDVETYLSQLPHIIRIPAHNVMVAHAGLHPQRPVDRQYEDEVTTMRNLIEKEQEATGGVTLTATEETNDGGKPWASMWRGPETVVFGHDARRGLQEQYKPLAIGLDSRCVYGGRLSAAVFPGGCIISVPGWNGASAAAEGHHHHHH,not failed
